According to the DeepSol protein solubility set:

experiment: soluble on expression in E. coli; label from the status in PepcDB or PDB records

| Sequence | soluble on expression in E. coli |
| --- | --- |
| MAHHHHHHMQFHQFLCRFRNQVLLKGAFWSCPHQFRLGLHDRWKVNLVKVHIGVLGFFFKTHGESVVSGAKGDNLHGCRNGGVSALKVTNAFLNKIRNDQHTQIVPTIYQRGTPRQLSHEMSKIRILKVPMEHRRAFAHDTVIVSTLHRSVKTDVRGDTHRGTVLLHWKMHCLR | not soluble |
| MTKTVEMVITGAQVLNVYTREFEATSLWIDHGRIISNLRDEPYIAAQHVDATGQWIVPGMIDAHVHMESSMVAPSELGKVLLQHGVTTIATDPHELANVAGLEHHHHHH | not soluble |
| SLSDTLNSLQLGERPEGRTLLTASWVVGHKDGSHRLLKNGEVVFENGEILFVGHGFPGEVARRIDFGNALVSPGLIDLDALSDLDTTILGIDHHPGWAKGRVWPRSYVEAGPYEMYSAEELAFQKRFAFGQLLLNGITTAAPIASLFYRAWGETVAEFEAAADAAGELGLRVYLSPAFRSGGMVLEEPGRMFPVFDEERGFQGLKEAIAFIEKQSGRHGDLVRGMLAPDRVETSTLGLIERTDAAARELGCKFRLHMAQGVMEVDTVRKLHGSTAPVWLAKAGLLSERLIAPHATNATEEDLALYAENGVSIVHCPLVSSRGGSTLSSFSSCRKRGINIAMGTDTAPADMFMNLLVGLITCRINDGAPDQIRCADLFDAATLGGARALGRSDLGHLSSGARADIAVFDLDDAVMAPSVDPITTLVTGGSGKVTRAVFVDGRLSMRERQVAHIDMRRAREQAQAQFDRLIAKYPERSWANPPVSEIFPPSYQVEVAQHG | not soluble |
| MLLNLDVRMQLKELAQKEFKEPVSIKLFSQAIGCESCQTAEELLKETVEVIGEAVGQDKIKLDIYSPFTHKEETEKYGVDRVPTIVIEGDKDYGIRYIGLPAGLEFTTLINGIFHVSQRKPQLSEKTLELLQVVDIPIEIWVFVTTSCGYCPSAAVMAWDFALANDYITSKVIDASENQDLAEQFQVVGVPKIVINKGVAEFVGAQPENAFLGYIMAVYEKLKREKEQA | soluble |
| MQMCFSKSAQHHSKVKQRNSLLEIMENCFEMMVARCIKIGTVQTLTMLGLLPEVVTISQAEDIYGKRLITEWREKAWIKFYPANNKERGKYYVKRSELETASAMMDLHNKVPDNIIKQLMQLTV | not soluble |
| MDNLMLNNKIYLEGTVVSELEFSHEMYGEGFYTFNLEVMRLSDSKDLLNITVSERLITTMDLKIGTEIVVEGQLRSYNKFIDGNNKLILTVFARNIEYCEERSKNPNEIFLDGFICKEPVYRTTPFGREIADLLLAVNRSYNKSDYIPTIAWGRNSRFCKTLEVGDNIRIWGRLQSREYQKKISETEVVKKIAYEVSISKMEKVSVESEQNESGEEISLEHHHHHH | not soluble |
| MGSDKIHHHHHHMTISEARLSPQVNLLPIKRHSNEEVEETAAILKKRTIDNEKCKDSDPGFGSLQRRLLQQLYGTLPTDEKIIFTYLQDCQQEIDRIIKQSIIQKESHSVILVGPRQSYKTYLLDYELSLLQQSYKEQFITIRLNGFIHSEQTAINGIATQLEQQLQKIHGSEEKIDDTSLETISSGSLTEVFEKILLLLDSTTKTRNEDSGEVDRESITKITVVFIFDEIDTFAGPVRQTLLYNLFDMVEHSRVPVCIFGCTTKLNILEYLEKRVKSRFSQRVIYMPQIQNLDDMVDAVRNLLTVRSEISPWVSQWNETLEKELSDPRSNLNRHIRMNFETFRSLPTLKNSIIPLVATSKNFGSLCTAIKSCSFLDIYNKNQLSNNLTGRLQSLSDLELAILISAARVALRAKDGSFNFNLAYAEYEKMIKAINSRIPTVAPTTNVGTGQSTFSIDNTIKLWLKKDVKNVWENLVQLDFFTEKSAVGLRDNATAAFYASNYQFQGTMIPFDLRSYQMQIILQELRRIIPKSNMYYSWTQL | not soluble |
| MAHHHHHHMVTLNSTKPQVVIEASGVPTIQTSSITSPVVLTTPLGKSMYSSYSYSNPVSSSYSSSHHNECEYNWERVSTKPSQSTQHGEYMKTFEVPTGLYYETLPLKRNTNNIFEVTPSKEELEKINYNPRIEVYSTCNFVIIMMDLPGVSKENLKVELENGVLKIFGHKYKVPLEELQTEHEYHTKIIERVGEYYFCKMFQMPPVFSDGQSISCTLRDGELTFKMLASDLRAQKRVVEVQS | not soluble |
| MFFMYFTNYGYRLNQIKKGSDQHWLFLPGGPGLGSEYLASFCDKLTLQGTVSLVDFPKDGNNSEGQLDFVSWQEGLISLLKSLNKPILVTHSFSGMFTLNFPEIENHLSGLVLMNTTTTNSFFQHVNEMRQKHNLPDLVPAASQYHLYPSNETYKKFWDTYKHYCFTQEELPIGEQMMELFAYNNESYHYAIEHFYNDFHYKWHPQTIPTMTIASELDYICPPAIFIQDKNFQCQNVINKVIYKAGHCPWILHLEQVQKCFDEFSGMIQEINIERIL | not soluble |
| MAMKQWIAALLLMLIPGVQAAKPQKVTLMVDDVPVAQVLQALAEQEKLNLVVSPDVSGTVSLHLTDVPWKQALQTVVKSAGLITRQEGNILSVHSIAWQNDNIARQEAEQARAQANLPLENRSITLQYADAGELAKAGEKLLSAKGSMTVDKRTNRLLLRDNKTALSALEQWVAQMDLPVGQVELSAHIVTINEKSLRELGVKWTLADAQHAGGVGQVTTLGSDLSVATATTHVGFNIGRINGRLLDLELSALEQKQQLDIIASPRLLASHLQPASIKQESEIPYQVSSGESGATSVEFKEAVLGMEVTPTVLQKGRIRLKLHISQNVPGQVLQQADGEVLAIDKQEIETQVEVKSGETLALGGIFTRKNKSGQDSVPLLGDIPWFGQLFRHDGKEDERRELVVFITPRLVSSELEHHHHHH | soluble |
| MGHHHHHHSHMASPSKAVIVPGNGGGDVTTHGWYGWVKKELEKIPGFQCLAKNMPDPITARESIWLPFMETELHCDEKTIIIGHSSGAIAAMRYAETHRVYAIVLVSAYTSDLGDENERASGYFTRPWQWEKIKANCPYIVQFGSTDDPFLPWKEQQEVADRLETKLHKFTDCGHFQNTEFHELITVVKSLLKVPA | not soluble |
| MKIIGFACQWCAYQAADLAGSLKMKYPESIRLLRVPCSGRVNAEFILKALLSGADGVFVAGCPISECHYRSGNRIAKTKVALLKRLLPEFGLESGRVEFLQVSSADARKFVEFAKEFDERIRKLGPNPLRRDER | not soluble |
| MSQFISLTQYQLIEVQGADAEKYLQGQLTSDVVRLASGATTLTAHCDPKGKMNAIYRLFKVSSEQFFLLVKKDILPSGLDALKKYAVFSKVSFDLRDWQIIGVIGEKCGKITPNFSLEIDEKRSILLNETELPVNFNGDEKIWEVADIQAGLPNLSPQTQNEFIPQALNLQAIEQAISFTKGCYIGQETVARAKYRGANKRAMFIFKVQTQQEAEIGSEIEMQLEANWRKTGTITSAVNLDGVLWLQVVMNNDIDSEQQFRLLNSEILLERVQLPYSITELEHHHHHH | soluble |
| DPRLARLLGLHTQSRSAIVQALWQYVKTNRLQDSHDKEYINGDKYFQQIFDCPRLKFSEIPQRLTALLLP | soluble |
| MGSDKIHHHHHHMEIEIATIGGYEEVGRQMTAVRAGDDIVIFDMGLNLSKVLVHDNVETEKMHSLDLIDMGAIPDDRVMSDLEGDVKAIVPTHGHLDHIGAISKLAHRYDAPIVGSPFTIELVKGEIESEQKFGVENDLVKMEAGGTMEIGDRCELEFVHVTHSIIDAINPVLHTPEGAVVYGLDKRMDHDPVLEDPIDMERFREIGREGEGVLCYIEDCTNAGKKGRTPSESTARRHLKDVLTSVADYDGGIVATTFSSHISRVSSLVEFAKEIGREPILLGRSMERYSGTAERMGRVNFPDDLGMFGHRKSVDRAFKRVMNEGKENFLPIVTGHQGEPQAMLTRMGRGETPYDIEDGDKIIFSASVIPEPTNKGQRYQSEQLLRMQGARIYDDIHVSGHLREEGHYQMLDALQPQHLIPAHQDMKGMAPYAKLAKSQGYKIGRDLHMTENGNTIQLVE | not soluble |
| MFVRLFYTLRKYGVPVTTRELIDLNRAVAEGLVFADQDEFYQLAKTILVKDERFFDKFDRAIKDYFEGIETFDLDELLKQVQKIPKEWLDLELLEKHLTPEQREALQKAGSLEELMKMLEERLREQHKKHQGGNRMIGTGGTSPFGAFGDHPEGVRIGGPGRKRSAVKVWEQRKYQNLDDDQILGTRQMQLALRRLRKFARQGAADELDVDNTIRETAKQGILNVQMVPERRNRIKVLMLFDVGGSMDSHIAQCEKLFSAAKTEFKTLEYFYFHNCLYDYVWKDNHRRQASRLETWDLFHKYGRDYRVIVVGDASMAPYELRSAGGSVEYMNDEAGEIWLRRLRQHFDKTAWLNPEEEGYWKYTQTIGLIQQLFENHMYPMSLKGIEDMTRYLS | not soluble |
